The text below walks through data of patent publication US20240166737A1.

In general, Kd refers to the equilibrium constant for the complex coming apart. As a reminder, the EC50 is the midpoint of the concentration-response curve. Higher therefore signals a less potent agent.

One test addresses recombinant CD3 (UniProt P07766). In words: SPR. On the technique in general: In SPR one partner is held on a chip, and binding of the other changes the refractive index at the surface.
Test [1] has as its target CD3 epsilon on human T-cells (human) (UniProt P07766). In words: T cell binding.

Chain of recombinant CD3 (P07766 23-126): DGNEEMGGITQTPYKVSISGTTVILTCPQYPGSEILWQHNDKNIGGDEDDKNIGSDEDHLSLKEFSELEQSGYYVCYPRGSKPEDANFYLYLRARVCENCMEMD
Chain of CD3 epsilon on human T-cells (human) (P07766 23-207 limits assumed): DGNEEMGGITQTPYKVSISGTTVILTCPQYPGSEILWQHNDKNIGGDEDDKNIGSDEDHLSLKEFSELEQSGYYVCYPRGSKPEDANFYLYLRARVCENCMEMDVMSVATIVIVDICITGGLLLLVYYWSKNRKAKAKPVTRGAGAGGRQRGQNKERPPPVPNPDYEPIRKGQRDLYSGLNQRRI

B1: CD3B450-LH-ScFv (scFv, V domains shown, not shown: small tags and cut ends)
VH: QVQLQQSGPGLVKPSQTLSLTCAISGDSVFNNNAAWSWIRQSPSRGLEWLGRTYYRSKWLYDYAVSVKSRITINPDTSKNQFSLQLNSVTPEDTAVYYCARGYSSSFDYWGQGTLVTVSS
VL: QSALTQPASVSGSPGQSITISCTGTSSNIGTYKFVSWYQQHPGKAPKVMIYEVSKRPSGVSNRFSGSKSGNTASLTISGLQAEDEADYYCVSYAGSGTLLFGGGTKLTVL
For the molecule B1, the equilibrium dissociation constant (Kd) with recombinant CD3 was in the range of 50 to 100 nM. The molecule further returned an EC50 in test [1] of more than 300 nM.
